From US8829175B2, “Nucleic acids encoding polyvalent protein complexes” (IBC Pharmaceuticals, Inc., priority 2003, dated 2014)

Legend:
CEA = molecular target: T1, CEA (Homo sapiens, UniProt P06731); experiment: SE-HPLC analysis of in vitro immunoreactivity with CEA; format: binding; conditions: 125I-labeled protein; complexes bound to either one or two CEAs
T1 sequence (P06731 35-676): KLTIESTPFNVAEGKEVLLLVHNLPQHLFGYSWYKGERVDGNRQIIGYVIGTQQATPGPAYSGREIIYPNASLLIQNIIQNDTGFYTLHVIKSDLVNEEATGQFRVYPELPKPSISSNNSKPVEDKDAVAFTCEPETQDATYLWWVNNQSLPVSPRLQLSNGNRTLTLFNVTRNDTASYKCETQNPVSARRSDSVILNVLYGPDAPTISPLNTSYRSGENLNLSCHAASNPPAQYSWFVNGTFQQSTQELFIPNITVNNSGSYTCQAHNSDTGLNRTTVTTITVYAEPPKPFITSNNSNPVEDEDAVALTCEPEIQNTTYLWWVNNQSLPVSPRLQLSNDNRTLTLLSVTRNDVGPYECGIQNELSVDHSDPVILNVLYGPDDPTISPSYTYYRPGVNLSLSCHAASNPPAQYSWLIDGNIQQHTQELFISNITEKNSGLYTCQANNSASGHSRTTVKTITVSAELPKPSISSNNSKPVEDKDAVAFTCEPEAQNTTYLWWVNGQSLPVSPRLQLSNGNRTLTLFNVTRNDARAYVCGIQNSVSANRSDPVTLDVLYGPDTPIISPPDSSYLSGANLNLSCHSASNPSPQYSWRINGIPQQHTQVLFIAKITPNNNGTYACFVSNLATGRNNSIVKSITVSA
Text: Confirmation that BS14HP has the ability to bind CEA bivalently was provided by SE-HPLC analysis of in vitro immunoreactivity. […] (FIG. 6B).

[1] = BIAcore binding to HSG immobilized on a sensorchip
Text: If the W12 binding is allowed to approach saturation, the stoichiometry of the binding can be determined. The additional increase in RU resulting from W12 binding was compared to the initial RU increase of the hBS14 upon binding to the HSG-sensorchip. As each increase in RU level is directly proportional to the mass bound, the WI2:bsAb molar binding ratio can be calculated using the formula (RUWI2/RUhBS14)×(MWhBS14/MWWI2). hBS14 was designed to be bivalent for CEA (and monovalent for HSG) and as such should bind W12 (also bivalent) with a 1:1 molar ratio. […] When equal concentrations of hBS14 were bound to an HSG-sensorchip, BIAcore sensorgrams are indistinguishable between lots derived from either SP2/0 or YB2/0 cells (FIG. 17).

[2] = test system: human colonic tumor (GW-39) xenograft; experiment: Imaging of mice pre-targeted with hBS14 followed by 99mTc-IMP-245; format: in vivo, nude mice
Procedure: The experiment used 3 groups of 15 mice, each of which was necropsied, and 1 group of 5 mice that was imaged. Three groups of mice were administered 6 μCi ^125I-hBS14 (40 μg, 5.0×10^−10 moles). In the last group (imaging group), 3 mice received unlabeled hBS14. The amount of ^99mTc-IMP-245 administered to all the mice was ˜40 μCi (92 ng, 5.0×10^−11 moles) for a bispecific:peptide ratio of 10:1.
Animals 1 & 2 were given peptide only, while animals 3, 4, & 5 were administered hBS14 followed by peptide.

B1: hBS14: bispecific trivalent heterodimer (hMN-14×hMN-14×679) expressed in myeloma cells, SEQ ID NO:11 and 12 (antibody)
heavy: MEVQLVESGGDLVKPGGSLKLSCAASGFTFSIYTMSWLRQTPGKGLEWVATLSGDGDDIYYPDSVKGRFTISRDNAKNSLYLQMNSLRAEDTALYYCARVRLGDWDFDVWGQGTTVSVSSGGGGSDIQLTQSPSSLSASVGDRVTITCKASQDVGTSVAWYQQKPGKAPKLLIYWTSTRHTGVPSRFSGSGSGTDFTFTISSLQPEDIATYYCQQYSLYRSFGQGTKVEIKRLEGGGSEVQLVESGGGVVQPGRSLRLSCSASGFDFTTYWMSWVRQAPGKGLEWIGEIHPDSSTINYAPSLKDRFTISRDNAKNTLFLQMDSLRPEDTGVYFCASLYFGFPWFAYWGQGTPVTVSVDHHHHHH
light: MDIQLTQSPSSLSASVGDRVTITCKASQDVGTSVAWYQQKPGKAPKLLIYWTSTRHTGVPSRFSGSGSGTDFTFTISSLQPEDIATYYCQQYSLYRSFGQGTKVEIKRGGGQFMEVQLVESGGGVVQPGRSLRLSCSASGFDFTTYWMSWVRQAPGKGLEWIGEIHPDSSTINYAPSLKDRFTISRDNAKNTLFLQMDSLRPEDTGVYFCASLYFGFPWFAYWGQGTPVTVSGGGGSDIVMTQSPSSLAVSPGERVTLTCKSSQSLFNSRTRKNYLGWYQQKPGQSPKLLIYWASTRESGVPDRFSGSGSGTDFTLTINSLQAEDVAVYYCTQVYYLCTFGAGTKLELKRLDHHHHHH
With B1 the “SE-HPLC peak shifts on mixing with increasing amounts of CEA” value (CEA) was “two distinct peak shifts”, the “binding to immobilized HSG” value [1] was “bound tightly” and the “tumor visibility in images” value ([2]; 1 hr post-peptide administration, hBS14 48-hr clearance then 99mTc-IMP-245) was “clearly visible”. The “location of signal in images” value ([2]; 24 hrs post-peptide administration, imaged for 20 minutes) was “only signal detected was located in the tumors”.
